Laboratory results as given in publication PMC11522930, “2,2-Difluoro Derivatives of Fucose Can Inhibit Cell Surface Fucosylation without Causing Slow Transfer to Acceptors” (JACS Au, 2024).

Substrate: C[C@@H]1O[C@H](OP(=O)(O)OP(=O)(O)OC[C@H]2O[C@@H](n3cnc4c(=O)[nH]c(N)nc43)[C@H](O)[C@@H]2O)[C@@H](O)[C@H](O)[C@@H]1O
Test: GDP-Glo glycosyltransferase assay, nonlinear regression
Assay type: biochemical, Homo sapiens
Settings: saturating biantennary N-glycan acceptor 7; 1 h
Text: GDP-Glo glycosyltransferase assay, nonlinear regression on FUT8

B1: FUT8 (Homo sapiens) (protein)
chain: MRPWTGSWRWIMLILFAWGTLLFYIGGHLVRDNDHPDHSSRELSKILAKLERLKQQNEDLRRMAESLRIPEGPIDQGPAIGRVRVLEEQLVKAKEQIENYKKQTRNGLGKDHEILRRRIENGAKELWFFLQSELKKLKNLEGNELQRHADEFLLDLGHHERSIMTDLYYLSQTDGAGDWREKEAKDLTELVQRRITYLQNPKDCSKAKKLVCNINKGCGYGCQLHHVVYCFMIAYGTQRTLILESQNWRYATGGWETVFRPVSETCTDRSGISTGHWSGEVKDKNVQVVELPIVDSLHPRPPYLPLAVPEDLADRLVRVHGDPAVWWVSQFVKYLIRPQPWLEKEIEEATKKLGFKHPVIGVHVRRTDKVGTEAAFHPIEEYMVHVEEHFQLLARRMQVDKKRVYLATDDPSLLKEAKTKYPNYEFISDNSISWSAGLHNRYTENSLRGVILDIHFLSQADFLVCTFSSQVCRVAYEIMQTLHPDASANFHSLDDIYYFGGQNAHNQIAIYAHQPRTADEIPMEPGDIIGVAGNHWDGYSKGVNRKLGRTGLYPSYKVREKIETVKYPTYPEAEK
notes: isolated enzyme; construct not described in main text
- Km: 33.8 ± 2.5 µM
